Blank lines part the entries; values can stand above or below the binder they belong to. Square brackets hold non-standard residues; d marks the D form. Aib = CC(C)(N)C(=O)O
Tests used:
human GIP receptor = molecular target: T1, human GIP receptor (human, UniProt P48546 22-466); test: cell-based or functional assay
T1 sequence (looked up): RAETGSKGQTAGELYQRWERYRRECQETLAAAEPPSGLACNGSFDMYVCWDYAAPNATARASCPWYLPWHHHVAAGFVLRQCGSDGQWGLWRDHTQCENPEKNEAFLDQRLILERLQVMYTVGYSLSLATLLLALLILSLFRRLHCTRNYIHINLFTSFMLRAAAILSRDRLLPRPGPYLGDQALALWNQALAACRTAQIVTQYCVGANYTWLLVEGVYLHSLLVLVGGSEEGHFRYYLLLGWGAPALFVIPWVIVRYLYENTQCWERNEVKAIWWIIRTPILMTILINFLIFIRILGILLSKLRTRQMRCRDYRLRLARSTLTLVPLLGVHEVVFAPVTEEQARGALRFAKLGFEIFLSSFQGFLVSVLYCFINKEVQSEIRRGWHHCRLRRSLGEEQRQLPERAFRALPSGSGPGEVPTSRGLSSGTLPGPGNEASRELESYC

human GLP-1 receptor = human GLP-1 receptor (human, UniProt P43220 24-463); test: cell-based or functional assay

EC50, cAMP induction in HEK293 cells expressing human GIP R (human GIP receptor): 11 pM
EC50, cAMP induction in HEK293 cells expressing human GLP-1 R (human GLP-1 receptor): 22 pM
B1: Compound 40 (peptide)
peptide: H-Y[Aib]EGTFTSDYSIYLDEKAAKDFVEWLLSA-NH2
SMILES: CC[C@H](C)[C@H](NC(=O)[C@H](CO)NC(=O)[C@H](Cc1ccc(O)cc1)NC(=O)[C@H](CC(=O)O)NC(=O)[C@H](CO)NC(=O)[C@@H](NC(=O)[C@H](Cc1ccccc1)NC(=O)[C@@H](NC(=O)CNC(=O)[C@H](CCC(=O)O)NC(=O)C(C)(C)NC(=O)[C@@H](N)Cc1ccc(O)cc1)[C@@H](C)O)[C@@H](C)O)C(=O)N[C@@H](Cc1ccc(O)cc1)C(=O)N[C@@H](CC(C)C)C(=O)N[C@@H](CC(=O)O)C(=O)N[C@@H](CCC(=O)O)C(=O)N[C@@H](CCCCN)C(=O)N[C@@H](C)C(=O)N[C@@H](C)C(=O)N[C@@H](CCCCN)C(=O)N[C@@H](CC(=O)O)C(=O)N[C@@H](Cc1ccccc1)C(=O)N[C@H](C(=O)N[C@@H](CCC(=O)O)C(=O)N[C@@H](Cc1c[nH]c2ccccc12)C(=O)N[C@@H](CC(C)C)C(=O)N[C@@H](CC(C)C)C(=O)N[C@@H](CO)C(=O)N[C@@H](C)C(N)=O)C(C)C

EC50, cAMP induction in HEK293 cells expressing human GIP R (human GIP receptor): 7 pM
EC50, cAMP induction in HEK293 cells expressing human GLP-1 R (human GLP-1 receptor): 12 pM
B2: Compound 42 (peptide)
peptide: H-Y[Aib]EGTFTSDYSIYLDKKAAHDFVEWLLSA-NH2
SMILES: CC[C@H](C)[C@H](NC(=O)[C@H](CO)NC(=O)[C@H](Cc1ccc(O)cc1)NC(=O)[C@H](CC(=O)O)NC(=O)[C@H](CO)NC(=O)[C@@H](NC(=O)[C@H](Cc1ccccc1)NC(=O)[C@@H](NC(=O)CNC(=O)[C@H](CCC(=O)O)NC(=O)C(C)(C)NC(=O)[C@@H](N)Cc1ccc(O)cc1)[C@@H](C)O)[C@@H](C)O)C(=O)N[C@@H](Cc1ccc(O)cc1)C(=O)N[C@@H](CC(C)C)C(=O)N[C@@H](CC(=O)O)C(=O)N[C@@H](CCCCN)C(=O)N[C@@H](CCCCN)C(=O)N[C@@H](C)C(=O)N[C@@H](C)C(=O)N[C@@H](Cc1c[nH]cn1)C(=O)N[C@@H](CC(=O)O)C(=O)N[C@@H](Cc1ccccc1)C(=O)N[C@H](C(=O)N[C@@H](CCC(=O)O)C(=O)N[C@@H](Cc1c[nH]c2ccccc12)C(=O)N[C@@H](CC(C)C)C(=O)N[C@@H](CC(C)C)C(=O)N[C@@H](CO)C(=O)N[C@@H](C)C(N)=O)C(C)C

EC50, cAMP induction in HEK293 cells expressing human GIP R (human GIP receptor): 13 pM
EC50, cAMP induction in HEK293 cells expressing human GLP-1 R (human GLP-1 receptor): 11 pM
B3: Compound 41 (peptide)
peptide: H-Y[Aib]EGTFTSDYSIYLESKAAHDFVEWLLSA-NH2
SMILES: CC[C@H](C)[C@H](NC(=O)[C@H](CO)NC(=O)[C@H](Cc1ccc(O)cc1)NC(=O)[C@H](CC(=O)O)NC(=O)[C@H](CO)NC(=O)[C@@H](NC(=O)[C@H](Cc1ccccc1)NC(=O)[C@@H](NC(=O)CNC(=O)[C@H](CCC(=O)O)NC(=O)C(C)(C)NC(=O)[C@@H](N)Cc1ccc(O)cc1)[C@@H](C)O)[C@@H](C)O)C(=O)N[C@@H](Cc1ccc(O)cc1)C(=O)N[C@@H](CC(C)C)C(=O)N[C@@H](CCC(=O)O)C(=O)N[C@@H](CO)C(=O)N[C@@H](CCCCN)C(=O)N[C@@H](C)C(=O)N[C@@H](C)C(=O)N[C@@H](Cc1c[nH]cn1)C(=O)N[C@@H](CC(=O)O)C(=O)N[C@@H](Cc1ccccc1)C(=O)N[C@H](C(=O)N[C@@H](CCC(=O)O)C(=O)N[C@@H](Cc1c[nH]c2ccccc12)C(=O)N[C@@H](CC(C)C)C(=O)N[C@@H](CC(C)C)C(=O)N[C@@H](CO)C(=O)N[C@@H](C)C(N)=O)C(C)C

Source: patent publication US20150299281A1 (ZEALAND PHARMA A S, published 2015)
